Reference: patent US20150376286A1 (Amgen, published 2015)

T1: cynomolgus CGRP receptor (cynoCRLR + cynoRAMP1) (cynomolgus monkey)
T1 chain 1: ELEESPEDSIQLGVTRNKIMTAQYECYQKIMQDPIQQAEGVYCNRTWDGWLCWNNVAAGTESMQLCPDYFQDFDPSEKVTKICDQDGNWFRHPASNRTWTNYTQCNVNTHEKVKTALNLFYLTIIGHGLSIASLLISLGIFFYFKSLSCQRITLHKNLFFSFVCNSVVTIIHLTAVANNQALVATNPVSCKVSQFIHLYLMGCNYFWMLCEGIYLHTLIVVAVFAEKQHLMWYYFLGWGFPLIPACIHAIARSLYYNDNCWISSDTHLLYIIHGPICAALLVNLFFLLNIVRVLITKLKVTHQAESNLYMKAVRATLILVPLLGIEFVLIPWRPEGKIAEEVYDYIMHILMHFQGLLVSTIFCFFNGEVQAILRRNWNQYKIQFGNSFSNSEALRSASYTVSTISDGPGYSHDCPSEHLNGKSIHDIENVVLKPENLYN
T1 chain 2: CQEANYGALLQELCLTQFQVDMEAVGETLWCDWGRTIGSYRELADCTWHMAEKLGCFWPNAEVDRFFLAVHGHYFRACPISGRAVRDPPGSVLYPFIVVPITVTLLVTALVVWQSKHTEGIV

T2: soluble CGRP receptor-muFc fusion protein (human)
T2 construct: also called CGRP R-muFc; not shown: mouse Fc
T2 chain 1: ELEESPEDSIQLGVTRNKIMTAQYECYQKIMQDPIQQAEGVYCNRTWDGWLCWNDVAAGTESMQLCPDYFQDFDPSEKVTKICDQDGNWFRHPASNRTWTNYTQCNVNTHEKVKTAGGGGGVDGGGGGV
T2 chain 2: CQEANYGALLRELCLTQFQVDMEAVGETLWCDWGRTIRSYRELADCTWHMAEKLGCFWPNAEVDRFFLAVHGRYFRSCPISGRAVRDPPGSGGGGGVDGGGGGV

T3: chimeric CGRP receptor: CRLR wt + RAMP1 chimera #3 (R67 to E78) (human; human/rat chimera, UniProt Q16602 23-461; O60894 27-148)
T3 construct: also called CRLR wt+RAMP1 R67-E78
T3 chain 1: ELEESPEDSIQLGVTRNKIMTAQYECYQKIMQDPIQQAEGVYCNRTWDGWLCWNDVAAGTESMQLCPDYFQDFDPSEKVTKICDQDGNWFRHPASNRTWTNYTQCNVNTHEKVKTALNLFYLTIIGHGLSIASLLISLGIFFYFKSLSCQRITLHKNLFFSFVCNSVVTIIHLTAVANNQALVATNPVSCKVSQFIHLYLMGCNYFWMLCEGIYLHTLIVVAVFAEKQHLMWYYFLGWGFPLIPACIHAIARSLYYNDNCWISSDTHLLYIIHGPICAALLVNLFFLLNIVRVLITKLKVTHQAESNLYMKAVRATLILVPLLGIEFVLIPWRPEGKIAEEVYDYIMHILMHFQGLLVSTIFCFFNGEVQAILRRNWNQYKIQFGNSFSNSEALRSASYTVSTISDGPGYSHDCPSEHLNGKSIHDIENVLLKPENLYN
T3 chain 2: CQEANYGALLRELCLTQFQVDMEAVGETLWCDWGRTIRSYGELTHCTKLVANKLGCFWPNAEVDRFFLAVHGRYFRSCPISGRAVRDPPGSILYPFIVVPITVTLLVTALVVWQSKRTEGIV

T4: chimeric CGRP receptor: CRLR wt + RAMP1 chimera #2 (Q43 to E53) (human; human/rat chimera, UniProt Q16602 23-461; O60894 27-148)
T4 construct: also called CRLR wt+RAMP1 Q43-E53
T4 chain 1: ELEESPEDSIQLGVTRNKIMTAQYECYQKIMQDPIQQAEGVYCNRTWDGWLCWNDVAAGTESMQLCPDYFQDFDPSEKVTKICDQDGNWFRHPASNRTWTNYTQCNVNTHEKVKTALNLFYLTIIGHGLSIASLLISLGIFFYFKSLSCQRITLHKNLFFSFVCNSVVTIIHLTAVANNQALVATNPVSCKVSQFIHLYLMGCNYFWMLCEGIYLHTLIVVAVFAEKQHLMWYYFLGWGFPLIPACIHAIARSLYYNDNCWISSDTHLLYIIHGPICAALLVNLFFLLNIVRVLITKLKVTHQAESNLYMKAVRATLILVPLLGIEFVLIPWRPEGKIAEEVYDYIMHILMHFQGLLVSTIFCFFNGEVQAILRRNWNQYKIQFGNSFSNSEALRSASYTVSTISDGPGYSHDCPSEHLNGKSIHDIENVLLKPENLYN
T4 chain 2: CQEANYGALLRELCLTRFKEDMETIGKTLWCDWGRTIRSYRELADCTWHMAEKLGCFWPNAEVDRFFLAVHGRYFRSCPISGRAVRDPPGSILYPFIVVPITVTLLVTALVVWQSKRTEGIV

B1: 3B6 (antibody, human IgG2, lambda, V domains shown)
VH: not shown
VL: SSELTQDPTVSVALGQTVKITCQGDSLRSFYASWYQQKPGQAPVLVFYGKNNRPSGIPDRFSGSSSGNTASLTITGAQAEDEADYYCNSRDSSVYHLVLGGGTKLTVLG
notes: also called 03B6; 03B6.2
B2: 33B5 (antibody, V domains shown)
VH: not shown
VL: DIQMTQSPSSLSASVGDRVTITCRASQGIRNDLGWYQQKPGKAPKRLIYVASSLQSGVPSRFSGSGSGTEFTLTISSLQPEDFATYYCLQYNTYPLTFGGGTKVEIK
B3: 12G8 (antibody, human IgG2, lambda, V domains shown)
VH: QVQLVESGGGVVQPGRSLRLSCAASGFTFSSFGMHWVRQAPGKGLEWVAVISFDGSIKYSVDSVKGRFTISRDNSKNTLFLQMNSLRAEDTAVYYCARDRLNYYDSSGYYHYKYYGLAVWGQGTTVTVSS
VL: QSVLTQPPSVSAAPGQKVTISCSGSSSNIGNNYVSWYQQLPGTAPKLLIYDNNKRPSGIPDRFSGSKSGTSATLGITGLQTGDEADYYCGTWDSRLSAVVFGGGTKLTVLG
notes: also called 12G8.2
B4: 4E4 (antibody, human IgG2, lambda, V domains shown)
VH: QVQLVESGGGVVQPGRSLRLSCAASGFTFSSFGMHWVRQAPGKGLEWVAVISFDGSIKYSVDSVKGRFTISRDNSKNTLFLQMNSLRAEDTAVYYCARDRLNYYDSSGYYHYKYYGMAVWGQGTTVTVSS
VL: QSVLTQPPSVSAAPGQKVTISCSGSSSNIGNNYVSWYQQLPGTAPKLLIYDNNKRPSGIPDRFSGSKSGTSTTLGITGLQTGDEADYYCGTWDSRLSAVVFGGGTKLTVLG
notes: also called 04E4; 04E4.2

Assays:
[1] = biological target: human adrenomedullin receptor 2 (hCRLR + hRAMP3) (human, UniProt O60896 24-148); test: cell-based or functional assay
[2] = biological target: human adrenomedullin receptor 1 (hCRLR + hRAMP2) (human, UniProt O60895 43-175); test: cell-based or functional assay
[3] = biological target: human amylin AMY1 receptor (hCTR + hRAMP1) (human, UniProt P30988 25-474); test: cell-based or functional assay
rat CGRP receptor = rat CGRP receptor (rat, UniProt Q63118 24-464; Q9JJ74 27-148); test: cell-based or functional assay
[4] = biological target: T1, cynomolgus CGRP receptor (cynoCRLR + …); test: cell-based or functional assay
[5] = biological target: T2, soluble CGRP receptor-muFc fusion …; test: Western blot
Protocol: The sample containing βME was then boiled for 4 min. […] Gels were electroblotted onto 0.2 μm nitrocellulose filters (Invitrogen). The blots were washed with Tris-buffered saline+1% Tween 20 (TBST) and then blocked with TBST+5% powered dry milk for 30 min. The blots were cut into strips along the molecular weight marker lanes. […] Blots were incubated with the antibodies for one hour followed by 3×10 min washes with TBST+1% milk. The blots treated with the huCGRP R antibodies were then incubated with goat anti-mouse IgG-Fc-HRP (1:10,000 in TBST+1% milk) and the blots treated with anti-huRAMP1 (N-20 anti-RAMP1 goat polyclonal antibody, Santa Cruz Biotech, CA) were incubated with rabbit anti-goat IgG-Fc-HRP (1:10,000) for 20 min. Blots were washed 3×15 min with TBST. The huCGRP R and anti-huRAMP1 antibody blots were treated with Pierce Supersignal West Pico Detection reagent, and the anti-mouse and anti-human IgG-Fc-HRP blots were treated with Pierce standard Detection Reagent (1 min.). Blots were then exposed with Kodak Biomax MS X-ray film.

[6] = biological target: T3, chimeric CGRP receptor: CRLR wt + RAMP1 …; test: FACS on transfected 293-6E cells
Protocol: (§1) Cells were harvested after 72 hr, washed with PBS+0.5% BSA, and counted. Each transfected cell line was resuspended at a dilution of 5×10⁵ cells per 100 μl PBS/BSA. 100 μl of cell suspension was aliquot per well in a 96-well round-bottom plate (Falcon). The cells were pelleted at 1200 rpm for 5 min. […] Cells were incubated on ice for 1 hr. and then washed twice with PBS/BSA. […] Cells were incubated on ice in the dark for 1 hr. and then washed twice with PBS/BSA. Cells were resuspended in 200 μl PBS/BSA and analyzed using a FACS Calibur.

[7] = biological target: T5, chimeric CGRP receptor: CRLR chimera #1 (L24 to Q33) + RAMP1 wt (human/rat chimera; human, UniProt Q16602 1-461; O60894 27-148); test: FACS on transfected 293-6E cells
T5 construct: also called CRLR L24-Q33+RAMP wt
Protocol: as §1

[8] = biological target: T4, chimeric CGRP receptor: CRLR wt + RAMP1 …; test: FACS on transfected 293-6E cells
Protocol: as §1

[9] = biological target: T6, human CGRP receptor (CRLR + RAMP1) (human, UniProt Q16602 23-461; O60894 27-148); test: FACS on transfected 293-6E cells
T6 construct: also called hCGRP R; huCGRP R
Protocol: as §1

[10] = biological target: T6, human CGRP receptor (CRLR + RAMP1); test: 125I-CGRP competition binding, HTB-10 cell membranes
Protocol: The plates were incubated at room temperature for 2 hours with shaking at 60 rpm, and then the contents of each well were filtered over 0.5% polyethyleneimine (PEI)-treated (for at least one hour) GF/C 96-well filter plates. The GF/C filter plates were washed six times with ice-cold 50 mM Tris, pH 7.5 and dried in an oven at 55° C. for 1 hour. The bottoms of the GF/C plates were then sealed. 40 μl Microscint™ 20 was added to each well, the tops of the GF/C plates were sealed with TopSeal™-A (a press-on adhesive sealing film), and the GF/C plates were counted with TopCount NXT (Packard). The data were analyzed using Prizm (GraphPad Software Inc.)

[11] = biological target: T6, human CGRP receptor (CRLR + RAMP1); test: FACS Kd determination on AM-1 CHO huCGRP R cells; right-hand curve, cell density not labelled on the sheet
Protocol: (§2) Briefly, AM-1 CHO huCGRP R-expressing cells, prepared as described above, were plated in 96-well plates at densities of 16,000 or 160,000 cells per well in DMEM medium containing 10% FBS, NEAA, PS, L Glut, NaPyr and 0.05% sodium azide. […] After an overnight incubation at 4° C. in a total volume of 120 μl, on a plate shaker, the cells were washed 2× with PBS+2% FBS, centrifuging and discarding supernatant each time. 100 μl/well of G anti-Hu Fc Cy5 (5 μg/mL; Jackson ImmunoResearch Laboratories Inc., West Grove, Pa., USA) containing 7AAD (5 μl/well) was then added and incubated at 4° C. for 40 min. The cells were washed 2× with PBS+2% FBS, centrifuging and discarding the supernatant each time. 100 μl PBS+2% FBS buffer was then added and analyzed by FACS to determined the binding geomean. The Kd was calculated using KinExA software by taking the negative geomean at each antibody concentration as the amount of free Ab present Rathanaswami, et al., Biochemical and Biophysical Research Communications 334 (2005) 1004-1013.

[12] = biological target: T6, human CGRP receptor (CRLR + RAMP1); test: FACS on AM-1 CHO huCGRP R cells, KinExA n-curve analysis
Protocol: as §2

[13] = biological target: T6, human CGRP receptor (CRLR + RAMP1); test: cell-based or functional assay
[14] = biological target: T6, human CGRP receptor (CRLR + RAMP1); test: FACS Kd determination on AM-1 CHO huCGRP R cells; left-hand curve, cell density not labelled on the sheet
Protocol: as §2

Row | Binder | cAMP assay IC50 [1] [nM] | cAMP assay IC50 [2] [nM] | cAMP assay IC50 [3] [nM] | cAMP assay IC50 (rat CGRP receptor) [nM] | cAMP assay IC50 [4] [nM] | binding result [5] | binding result [6] | binding result [7] | binding result [8] | binding result [9] | Ki [10] [nM] | EC50 (read off the curve) [11] [nM] | Kd [12] [nM] | cAMP assay IC50 [13] [nM] | EC50 (read off the curve) [14] [nM]
1 | B1 | > 1000 | > 1000 | > 1000 | > 1000 | 2.22 | binds | – | – | – | – | – | – | – | – | –
2 | B2 | – | – | – | – | – | – | binds | binds | binds | binds | – | – | – | – | –
3 | B3 | > 1000 | > 1000 | > 1000 | > 1000 | 2.74 | – | – | – | – | – | 0.017 | ~8 | 1.4 | 2.14 | ~2
4 | B4 | > 1000 | > 1000 | > 1000 | > 1000 | 3.52 | binds | – | – | – | – | – | – | – | – | –
